Reference: the RNAGym collection of RNA variant scans (doi:10.7554/elife.90254)

B1: OR4K15 (parent)
chain: GUUAACGGUCAUAGGCCAUGGAAACUAGGAGCACCAUUUCGCUGCCAGUGAAGAAAUGAACAAAGAAAAUCUGGGCCAGGCAGGCAUCAAAAGAAAUAGUCUUGCGCUCAACCAGAAAGUCUGUAAUCAUUUUAAGGGUA

Variants of: B1
Experiment: self-cleavage, relative activity (ratio to wild type); higher = more cleavage; in vitro, sequencing; the parent is a self-cleaving ribozyme

| Variant | self-cleavage |
| --- | --- |
| U38C C112U | 0.02 |
| A51G A129C | 0.98 |
| U97C A118U | 1.62 |
| A30G A59U | 1.18 |
| C45U A60G | 1.29 |
| C35U A62G | 0.56 |
| A23G A89G | 1.32 |
| A51G A59U | 1.74 |
| U57C A59G | 0.57 |
| C16A | 1.69 |
| A96U A114G | 0.85 |
| A54G A134G | 1.2 |
| G14A A92G | 0.96 |
| G53A C128A | 0.93 |
| U43C G123A | 2.35 |
| A30G A56U | 1.02 |
| A27G A86G | 1.4 |
| G41U U122C | 1.34 |
| A63G U72G | 0.29 |
| A69U U87G | 0.74 |
| U38C A52G | 1.53 |
| U38C U124C | 1.21 |
| U3A A47C | 1.17 |
| U102C U132A | 2.37 |

| Variant | self-cleavage |
| --- | --- |
| U108C A118G | 0.01 |
| A62G U70C | 0.47 |
| A13U A66U | 1.15 |
| A64U U100C | 2.38 |
| A30U U108A | 0.05 |
| A51G A64G | 1.42 |
| U43G A125G | 1.11 |
| U39G A92G | 1.57 |
| U19C U38C | 1.22 |
| C88A A111G | 0 |
| A91G A114U | 0.03 |
| A33G U43C | 0.71 |
| G7A A110G | 0.11 |
| A98U A117G | 1.63 |
| U49G U132C | 1.1 |
| A78U A110C | 0.05 |
| G75A G93A | 0.14 |
| A22G U37A | 2.01 |
| U26C U132A | 0.61 |
| A33G A64C | 1.17 |
| A23U A52G | 1.2 |
| G74A A95G | 0.35 |
| A33U A126G | 1.4 |
| A22G U102C | 1.56 |

| Variant | self-cleavage |
| --- | --- |
| A68G U102A | 0.85 |
| U39A A94G | 1.47 |
| A114C G137A | 0.07 |
| C61U A98U | 2.63 |
| A23G G41C | 1.01 |
| U12C U97C | 0.65 |
| A54G G104A | 0.09 |
| U72C U127A | 0.19 |
| A23G C113U | 0.05 |
| A91G A135U | 1.25 |
| G79C A116G | 0.03 |
| U49C U120C | 0.52 |
| C42A U120A | 1.7 |
| A86U C101A | 0.09 |
| A52G A69U | 1.25 |
| U97A A116G | 1.19 |
| A63G G83A | 1.84 |
| C42U U139A | 2 |
| A18G U38A | 1.27 |
| A90U A116U | 0.24 |
| G44A A47G | 1.27 |
| U72C U122A | 0.09 |
| A82U A111U | 0.04 |
| A56G A78U | 0.2 |

| Variant | self-cleavage |
| --- | --- |
| A114U U132A | 0.08 |
| A60U A63G | 0.71 |
| U103C G106A | 0.02 |
| G115A U132G | 0.01 |
| A110U A114U | 0.04 |
| A11U A117G | 1.41 |
| G7A A18C | 1.98 |
| A62U A82G | 0.67 |
| A52G U139G | 1.6 |
| A55G A98C | 1.25 |
| U97G U103C | 0.69 |
| A59G U122C | 1.1 |
| A23G U103A | 0.75 |
| A54G A55G | 0.99 |
| U108C C121U | 0.02 |
| A4G U70A | 1.14 |
| A67U C85U | 1.15 |
| A5G U132A | 0.6 |
| A110G A114C | 0.01 |
| G15A A56G | 1.45 |
| U131C A135G | 1.55 |
| U49A A118U | 0.7 |
| A5U A69G | 0.36 |
| A118G A125G | 0.1 |

| Variant | self-cleavage |
| --- | --- |
| A47C U108C | 0.02 |
| U39G A129G | 0.86 |
| A5G G15U | 0.82 |
| A22U A24G | 1.01 |
| A30G C71U | 0.62 |
| A27G A33G | 0.96 |
| G58U A68G | 0.92 |
| U26A G44C | 0.71 |
| A51C G99A | 0.94 |
| U9A A55G | 0.81 |
| U39C A56G | 0.89 |
| A36U U97C | 0.37 |
| A52G C88A | 1.78 |
| A47G U139A | 1.4 |
| U97A C101U | 0.49 |
| U124C A135G | 1.33 |
| A24G A62U | 1.12 |
| A18G C101A | 0.06 |
| A82U A95G | 0.51 |
| A55G A86G | 1.17 |
| A11G | 0.77 |
| A33U A96G | 0.16 |
| A5U U103C | 0.83 |
| U39C A52G | 1.76 |

| Variant | self-cleavage |
| --- | --- |
| U9C A55U | 1.16 |
| A47U A98U | 1.79 |
| A69G U122G | 1.83 |
| A62G C101U | 0.41 |
| U108G U133C | 0.02 |
| A62U G93A | 2.2 |
| A60G C107U | 0 |
| U122A U133A | 1.43 |
| A13G A62G | 1.25 |
| A22U A63U | 2.2 |
| A89G U100A | 0.5 |
| G83U A110G | 0.06 |
| C25U A135G | 1.44 |
| A24C A111G | 0.01 |
| A69G C85U | 0.65 |
| A86U A126G | 1.63 |
| A33U A95G | 1.66 |
| U87C A94G | 1.04 |
| G83U U102C | 0.35 |
| C25U A86C | 0.72 |
| A23U U26C | 1.23 |
| U57A U100C | 2.19 |
| C6A A111G | 0.08 |
| A27G U127C | 0.56 |

| Variant | self-cleavage |
| --- | --- |
| A33G U132A | 0.51 |
| C45U A126G | 0.97 |
| U43A U130C | 1.44 |
| A23G U72C | 0.3 |
| U100C U130A | 2.16 |
| A55G U120C | 0.85 |
| A36G G119C | 1.4 |
| U49C A59U | 1.24 |
| U2C G83A | 0.87 |
| G50C A116G | 0.9 |
| U108C G137A | 0.01 |
| U49A U139C | 1.97 |
| A5C A68G | 1.63 |
| G28C | 0.93 |
| A22U A69U | 2.67 |
| U2C U70C | 0.46 |
| U2C U70A | 0.71 |
| A52G A98G | 0.8 |
| U49G A92G | 0.7 |
| U102C C128A | 2.11 |
| G21A U38A | 1.28 |
| A30U A82G | 0.52 |
| A54G A110C | 0.2 |
